± gives the standard deviation of the averaged measurements.
test system: ATP; test: switch fluorescence ratio, 500 uM ATP over buffer (Cy3 cluster intensity, sum of 5 cycles each) (fold (ratio)); higher = stronger signal-on switching upon ATP binding; sequences stand for … in TCGTCGGCAGCGTCAGATGTGTATAAGAGACAGTTTTTTTTTTTTTTTTTTTTTTTTT…TC; settings: aptamer strand: ATP DNA aptamer (quencher-CACCTGGGGGAGTATTGCGGAGGAAGG + anchor), 100 nM annealed; ATP concentration: 500 uM
How it was run: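 After annealing to 100 nM quencher-labelled ATP aptamer, Cy3-labelled switching-strand clusters on a modified Illumina MiSeq flow-cell were imaged in selection buffer. A second image followed after 15 min with 500 uM ATP at 22 °C, and five such buffer/ATP cycles were done, each separated by NaOH stripping and re-annealing. The fluorescence ratio, averaged per switch-domain sequence, is summed target-cycle over summed buffer-cycle Cy3 intensity per cluster, with clusters outside 100-1000 RFU excluded.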
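Also: ATP exposure 15 min at 22 °C before imaging.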

Sequence | switch fluorescence ratio
AGTTATCAGG | 1.06 ± 0.024
ATGGACCGTT | 1.02 ± 0.078
TGAGTAACAG | 0.981 ± 0.012
CTCCTGTGTT | 1.06 ± 0.0073
AATGCGTTCG | 0.99211 ± 0.00042
CTGATTTGTA | 1 ± 0.053
GTTAGTGTTG | 0.978 ± 0.01
TAGTTGTAAA | 1.03 ± 0.075
GGGCTAGCCA | 0.979 ± 0.011
CGAGGGACTG | 0.984 ± 0.0099
ATGCTAAGTG | 0.96412 ± 8.8e-05
AAATGGAGTG | 0.987 ± 0.018
TGATGGGTGC | 1.04 ± 0.045
ATGTGGCTAG | 1.01 ± 0.032
CTAAATGTTT | 1 ± 0.05
TCGGAGAGGA | 0.986 ± 0.016
TAGGTAAAGA | 0.98 ± 0.021
TACGGGCTTT | 1.03 ± 0.033
TATGGGGAAT | 1.03 ± 0.098
GCGGGGGGCT | 1.03 ± 0.041
ACCGCGGGCG | 1.069 ± 0.0053
ATTGGCGTTT | 0.996 ± 0.049
TCAAAGTACC | 1.16 ± 0.073

Sequence | switch fluorescence ratio
CGTTTGTCCT | 0.9907 ± 0.0036
CTGGGTTGTA | 1 ± 0.012
CATTAGAGGT | 0.995 ± 0.014
TTCTAAAAAG | 0.995 ± 0.035
GTAATGTGGT | 0.967 ± 0.024
TGTTTCTATT | 0.9925 ± 0.0055
TGTTGAGCAT | 1.09 ± 0.089
GAGAGGGAGG | 0.979 ± 0.015
GGTATATTCC | 1.02 ± 0.024
ATAGATATAG | 1.027 ± 0.0096
AGGTCAGGCA | 1.002 ± 0.0075
ATTTTTGTGG | 0.974 ± 0.011
AAGCTGAAGT | 1.03 ± 0.035
AAAGATTTTG | 0.982 ± 0.031
CGCAGCTATT | 3.56 ± 2.1
ATGTTAACG | 0.999 ± 0.043
TTTGGCTGAG | 1.004 ± 0.009
TTTTAGAGTG | 1 ± 0.036
ATTAAATACC | 1.25 ± 0.29
TTTAAAGGAT | 1 ± 0.024
CACGCTTTTT | 1.15 ± 0.23
TTTTTTCTAA | 0.973 ± 0.015
CGTTTTTGAT | 0.981 ± 0.04

Sequence | switch fluorescence ratio
CGACAGCGGC | 2.11 ± 0.094
GTCGAAGGAA | 1 ± 0.011
TTTGTGGATT | 1.06 ± 0.069
TTATACGTAT | 1.04 ± 0.037
GGCAGTTGCT | 0.9882 ± 0.0056
AAGTTTATCT | 0.989 ± 0.02
AAGCTTGCCT | 0.9871 ± 0.0013
CCACAGGGCA | 1.34 ± 0.059
AATAGAGTTA | 1.02 ± 0.023
CGTTTAAAAG | 0.975 ± 0.022
GAAAGAGTTC | 0.99729 ± 0.00094
CTTTTTGTGG | 0.9838 ± 0.0075
TCCTTTTTTT | 1.01 ± 0.033
TCGGCGTCTT | 0.977 ± 0.04
GGTTTTTAGA | 1 ± 0.013
GGGTTGTTGC | 1 ± 0.037
AACCTCACGC | 1.73 ± 0.2
GATATTGAGC | 1.02 ± 0.026
ATAGGGGAAA | 0.987 ± 0.024
GTAAGATGAA | 1.01 ± 0.018
CCGGATTATA | 1.046 ± 0.0059
GTGCGCAGAT | 0.982 ± 0.022
GTTTTGAGGG | 1.01 ± 0.016

Sequence | switch fluorescence ratio
AGTGTGTCGG | 0.974 ± 0.067
TTTAGGCATT | 1.03 ± 0.031
TAAAAAGGAA | 0.964 ± 0.064
AATCTAACGT | 0.9937 ± 0.008
GCTATCACCA | 1.31 ± 0.32
AATTGTAAGA | 0.992 ± 0.025
GGGCCCGAAT | 0.992 ± 0.047
TTTTGGGGTA | 0.993 ± 0.036
GACGCCGGGT | 1.03 ± 0.02
TATCGAGCAT | 1.028 ± 0.0096
CAAAGGGCAT | 1.02 ± 0.032
TACTCATGAA | 1.038 ± 0.0037
GTGGGTTACT | 1.02 ± 0.021
AAGTGGGGG | 0.992 ± 0.016
GAGCCTCGGA | 1.29 ± 0.44
AAGGGGACGA | 0.978 ± 0.033
TCTCGCCTTT | 0.975 ± 0.066
GTTTTCACAG | 0.992 ± 0.033
CAATAAGAGC | 1.09 ± 0.029
AAATCGTTGT | 0.975 ± 0.043
TTCTGGGGCA | 1.05 ± 0.055
TAATTGGAGT | 0.972 ± 0.014
TTATAATTAG | 0.994 ± 0.046

Sequence | switch fluorescence ratio
AGATGTGTCT | 1.02 ± 0.003
TTAAGTTTGG | 1.01 ± 0.027
CGGGGCTATT | 0.999 ± 0.03
ACGGGGAGTT | 1.05 ± 0.031
GCTGCTATTG | 0.994 ± 0.02
GATAGCTGGG | 1 ± 0.014
AGGTGGGCTG | 0.963 ± 0.024
ATGGGGGCGT | 0.994 ± 0.043
TTAATGTTCA | 1 ± 0.031
TTTGGGGGCT | 1.01 ± 0.04
CTTCGGGTAC | 3.69 ± 0.79
TAGCCCGGTG | 1.47 ± 0.53
GCTGTAAGTA | 0.988 ± 0.017
TGGGGACTCC | 0.997 ± 0.032
AAAAGGAACT | 1.04 ± 0.044
ATTTTCATTG | 0.9749 ± 0.0087
GGGGGAAGAC | 1.04 ± 0.053
CAGGGTGGGT | 1.02 ± 0.05
TTTAACTGCG | 1.02 ± 0.036
AAAAGAGCCC | 1.0191 ± 0.0008
GGGGTTCTGA | 0.974 ± 0.032
CGACTTGGAA | 1.02 ± 0.036
ATGAGCTGGG | 0.966 ± 0.015

Sequence | switch fluorescence ratio
TACGTATACT | 1.39 ± 0.015
TAGTTAACTT | 1.01 ± 0.021
ATAGCGGAAT | 1.007 ± 0.01
GGTGGGGTTA | 0.984 ± 0.038
GTGATAAGCG | 1.03 ± 0.04
GTGGGACACG | 1.01 ± 0.048
AATATTTGTG | 1.15 ± 0.23
GTTTAGGGGC | 0.992 ± 0.023
TTGTGATGTC | 1.031 ± 0.0048
GGGGGAATAG | 1.05 ± 0.046
TTACTATATG | 1.03 ± 0.018
AAGATCATCT | 1.01 ± 0.023
CGAATGGGTT | 0.965 ± 0.011
GCCGTCTCCC | 1.03 ± 0.047
GACGGGGCG | 0.97 ± 0.057
CCACCCACAT | 1.48 ± 0.065
ATGGATGACT | 1.04 ± 0.018
CAGTTGTGTG | 0.994 ± 0.034
AAATGACAGT | 1.01 ± 0.028
CGCTAATGCG | 1.04 ± 0.059
TATATTACCC | 1.05 ± 0.065
TTAAGGGGCA | 1.02 ± 0.035
AGTAAGGCTA | 1 ± 0.051

Sequence | switch fluorescence ratio
TCTTCATGCG | 1.07 ± 0.053
ATATAAGTAG | 1.03 ± 0.014
CCTTTGCCCG | 1.07 ± 0.17
CTCAAAGTCT | 1.02 ± 0.012
TGGGGGGTAG | 0.988 ± 0.02
GAGCTGACTT | 1.02 ± 0.016
CTGTTTTGGG | 1.03 ± 0.032
TTCAGTTAAT | 1 ± 0.0032
CTGTTTAAGG | 0.986 ± 0.013
GCAGTGTACG | 0.997 ± 0.0087
CGTGGCTATG | 0.959 ± 0.019
TAGCGGGGAC | 1.07 ± 0.037
TTTTGTTTTT | 1.08 ± 0.44
CGGGAGAACT | 0.987 ± 0.026
AGTTTTGTTA | 1.02 ± 0.019
TTGGTACTTA | 0.995 ± 0.013
CTAATGTGTC | 1.02 ± 0.088
CGGGGGCTGG | 0.989 ± 0.059
CCAGGTTAAT | 1.036 ± 0.0033

Reference: the supplement of paper PMC10126150
